Patent US7183387 (Genentech, dated 2007)
Changes are numbered by the printed parent chain. Names may count otherwise.

Legend:
[1] = biological target: T1, human FcγRIIA-Arg131 α subunit extracellular domain-His6-GST fusion (human, UniProt P12318 34-217); assay: hexamer ELISA
T1 construct: extracellular domain; also called FcγRIIA-R131; not shown: glutathione S transferase (GST)
T1 sequence: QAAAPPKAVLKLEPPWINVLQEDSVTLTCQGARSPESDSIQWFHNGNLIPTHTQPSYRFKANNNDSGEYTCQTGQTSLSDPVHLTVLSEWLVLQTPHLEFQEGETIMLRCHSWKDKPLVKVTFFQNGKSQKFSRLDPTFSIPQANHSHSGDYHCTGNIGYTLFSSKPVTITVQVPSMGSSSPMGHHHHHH

[2] = biological target: T2, human FcγRIIIA-Phe158 α subunit extracellular domain-His6-GST fusion (human, UniProt P08637 17-208); assay: hexamer ELISA
T2 construct: extracellular domain; also called FcγRIIIA-F158; CD16; not shown: glutathione S transferase (GST)
T2 sequence (P08637 other isoform, or with tags, fused parts or gaps): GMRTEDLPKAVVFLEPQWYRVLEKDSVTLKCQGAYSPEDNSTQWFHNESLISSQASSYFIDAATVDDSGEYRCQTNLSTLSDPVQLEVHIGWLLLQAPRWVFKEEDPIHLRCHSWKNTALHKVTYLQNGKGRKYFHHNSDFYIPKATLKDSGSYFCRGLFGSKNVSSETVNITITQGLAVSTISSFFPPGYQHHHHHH

[3] = biological target: T3, human FcγRIIB α subunit extracellular domain-His6-GST fusion (human, UniProt P31994 43-217); assay: hexamer ELISA
T3 construct: extracellular domain; also called CD32; not shown: glutathione S transferase (GST)
T3 sequence: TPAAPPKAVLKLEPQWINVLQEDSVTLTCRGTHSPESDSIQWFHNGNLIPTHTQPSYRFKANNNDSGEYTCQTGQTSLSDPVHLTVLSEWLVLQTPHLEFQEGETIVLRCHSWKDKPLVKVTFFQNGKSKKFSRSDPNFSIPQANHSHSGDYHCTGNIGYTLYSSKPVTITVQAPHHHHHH

[4] = biological target: T4, human FcγRIIIA-Val158 with human γ-chain on stably transfected CHO cells (human, UniProt P08637 17-254; P30273 19-86); assay: flow cytometry, monomeric IgG on CHO cells with FcγRIIIA-Val158 α- and γ-chains
T4 construct: whole, on cells; CHO cells stably transfected with the α- and γ-chains of the receptor; also called FcγRIIIA-Val158 (cell-based assay); FcγRIIIA-V158
T4 sequence (P08637 17-254 F176V, chain 1 of 2): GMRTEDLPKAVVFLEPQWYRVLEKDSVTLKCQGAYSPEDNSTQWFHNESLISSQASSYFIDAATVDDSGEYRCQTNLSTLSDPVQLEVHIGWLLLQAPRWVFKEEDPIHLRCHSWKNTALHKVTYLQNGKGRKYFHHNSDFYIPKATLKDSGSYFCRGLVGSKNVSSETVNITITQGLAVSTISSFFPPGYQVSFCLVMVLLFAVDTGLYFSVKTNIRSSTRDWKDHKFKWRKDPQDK
T4 sequence (P30273 19-86, chain 2 of 2): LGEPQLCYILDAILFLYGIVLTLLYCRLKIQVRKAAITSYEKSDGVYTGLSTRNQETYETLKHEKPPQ

[5] = biological target: T5, human FcγRIIIA-Phe158 α subunit extracellular domain-His6-GST fusion protein (human, UniProt P08637 17-208); assay: ELISA format, hexameric complex on FcγRIIIA-Phe158; separate assays run together with the Val158 assays
T5 construct: ELISA-format target; also called FcγRIIIA-F158; not shown: glutathione S-transferase (GST)
T5 sequence (P08637 other isoform, or with tags, fused parts or gaps, form in doubt): as the sequence (P08637 other isoform, or with tags, fused parts or gaps) above

[6] = biological target: T6, human FcγRIIIA-Val158 α subunit extracellular domain-His6-GST fusion protein (human, UniProt P08637 17-208); assay: ELISA format, hexameric complex on FcγRIIIA-Val158
T6 construct: ELISA-format target; also called FcγRIIIA-V158; not shown: glutathione S-transferase (GST)
T6 sequence (P08637 other isoform, or with tags, fused parts or gaps, form in doubt): as the sequence (P08637 other isoform, or with tags, fused parts or gaps) above, with F160V counted along it

[7] = biological target: T7, human FcγRIIA-R131 α subunit extracellular domain-His6-GST fusion protein (human, UniProt P12318 34-217); assay: ELISA, IgG:IgE hexamer on coated FcγRIIA-R131-GST; value carried over from Table 6, 7 or 8
T7 construct: ECD-6His-GST fusion made in 293 cells, coated on the plate; also called FcγRIIA-Arg131; not shown: glutathione S-transferase (GST)
T7 sequence: T1 sequence

[8] = biological target: T8, human FcγRIIA-H131 α subunit extracellular domain-His6-GST fusion protein (human, UniProt P12318 34-217); assay: ELISA; binding ratio on FcγRIIA-H131 divided by that on FcγRIIA-R131
T8 construct: also called FcγRIIA-His131; not shown: glutathione S-transferase (GST)
T8 sequence: T1 sequence with R134H

[9] = biological target: T9, human FcγRIIIA-Phe158 with human γ-chain on stably transfected CHO cells (human, UniProt P08637 17-254; P30273 19-86); assay: flow cytometry, monomeric IgG on CHO cells with FcγRIIIA-Phe158 α- and γ-chains
T9 construct: whole, on cells; CHO cells stably transfected with the α- and γ-chains of the receptor; also called FcγRIIIA-Phe158 (cell-based assay)
T9 sequence (P08637 17-254, chain 1 of 2): as the sequence (P08637 17-254 F176V, chain 1 of 2) above, with V160F counted along it
T9 sequence (P30273 19-86, chain 2 of 2): as the sequence (P30273 19-86, chain 2 of 2) above
Experimental: CHO cell transfection was carried out using Superfect (Qiagen) according to the manufacturer's instructions. […] Receptor expression levels were determined by staining with anti-FcγRIII monoclonal antibody 3G8 (Medarex). Binding of IgG1 variants was performed by adding monomeric IgG in staining buffer to 5×10^5 cells and incubating in 96 well round-bottom tissue culture plates (Costar, Cambridge, Mass.) at 4° C. for 30 min. Cells were washed three times with staining buffer and IgG binding detected by addition of 1:200 PE-F(ab')_2 fragment of goat anti-human IgG and incubation for 30 min at 4° C. After washing, immunofluorescence staining was analyzed on a FACScan flow cytometer using Cellquest software (Becton Dickinson). Dead cells were excluded from analysis by addition of 1 μg/ml propidium iodide.
For FcγRIIIA, the selected variants were assayed in the ELISA-format as well as on stable-transfected CHO cell lines expressing the γ-chains (FcγRIIIA-Phe158 or FcγRIIIA-Val158) with the associated human α-chain.

[10] = biological target: T5, human FcγRIIIA-Phe158 α subunit …; assay: ELISA, IgG:IgE hexamer on coated FcγRIIIA-Phe158-GST; value carried over from Table 6
[11] = biological target: T7, human FcγRIIA-R131 α subunit …; assay: ELISA, IgG:IgE hexamer on coated FcγRIIA-R131-GST; separate assays run together with the H131 assays
[12] = biological target: T8, human FcγRIIA-H131 α subunit …; assay: ELISA, IgG:IgE hexamer on coated FcγRIIA-H131-GST
[13] = biological target: T10, human FcγRIA α subunit extracellular domain-His6-GST fusion (human, UniProt P12314 16-292); assay: FcγRI ELISA and THP-1 cells, averaged
T10 construct: extracellular domain; also called GST-FcγRIA; CD64; not shown: glutathione S transferase (GST)
T10 sequence (P12314 other isoform, or with tags, fused parts or gaps): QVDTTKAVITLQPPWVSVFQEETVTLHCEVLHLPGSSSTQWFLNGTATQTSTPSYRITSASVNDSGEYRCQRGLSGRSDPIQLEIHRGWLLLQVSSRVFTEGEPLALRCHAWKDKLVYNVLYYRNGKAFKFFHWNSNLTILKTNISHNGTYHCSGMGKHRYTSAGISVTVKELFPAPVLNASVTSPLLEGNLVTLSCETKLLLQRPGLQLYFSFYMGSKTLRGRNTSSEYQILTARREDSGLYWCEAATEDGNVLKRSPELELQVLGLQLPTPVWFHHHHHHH

[14] = biological target: T11, human neonatal Fc receptor (FcRn), biotinylated (human, UniProt P55899 24-297; P61769 21-119, biotinylated (biotin-X-NHS)); assay: FcRn ELISA, pH 6.0;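 further: Streptavidin-captured FcRn plates, IgG variants titrated 2 h at pH 6.0, peroxidase anti-human IgG read at 450 nm, variant over standard concentration at the standard curve mid-point absorbance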
T11 construct: captured on streptavidin plates
T11 sequence (P55899 24-297 limits assumed, chain 1 of 2): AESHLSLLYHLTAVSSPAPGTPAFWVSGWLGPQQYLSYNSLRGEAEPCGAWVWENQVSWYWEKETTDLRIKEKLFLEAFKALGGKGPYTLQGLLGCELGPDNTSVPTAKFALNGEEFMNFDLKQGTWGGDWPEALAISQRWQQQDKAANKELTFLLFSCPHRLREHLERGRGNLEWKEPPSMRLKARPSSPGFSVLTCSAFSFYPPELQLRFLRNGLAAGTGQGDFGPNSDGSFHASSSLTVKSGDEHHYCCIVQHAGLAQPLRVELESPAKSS
T11 sequence (P61769 21-119 limits assumed, chain 2 of 2): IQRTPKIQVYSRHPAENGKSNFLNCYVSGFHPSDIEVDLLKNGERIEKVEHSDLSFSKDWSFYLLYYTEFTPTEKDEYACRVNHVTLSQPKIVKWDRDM
Experimental: (§1) FcRn Binding ELISA: For measuring FcRn binding activity of IgG variants, ELISA plates were coated with 2 µg/ml streptavidin (Zymed, South San Francisco) in 50 mM carbonate buffer, pH 9.6, at 4° C. overnight and blocked with PBS-0.5% BSA, pH 7.2 at room temperature for one hour. Biotinylated FcRn (prepared using biotin-X-NHS from Research Organics, Cleveland, Ohio and used at 1–2 µg/ml) in PBS-0.5% BSA, 0.05% polysorbate 20, pH 7.2, was added to the plate and incubated for one hour. Two fold serial dilutions of IgG standard (1.6–100 ng/ml) or variants in PBS-0.5% BSA, 0.05% polysorbate 20, pH 6.0, were added to the plate and incubated for two hours. Bound IgG was detected using peroxidase labeled goat F(ab')_2 anti-human IgG F(ab')_2 in the above pH 6.0 buffer (Jackson ImmunoResearch, West Grove, Pa.) followed by 3,3',5,5'-tetramethyl benzidine (Kirgaard & Perry Laboratories) as the substrate. Plates were washed between steps with PBS-0.05% TWEEN 20® at either pH 7.2 or 6.0. Absorbance was read at 450 nm on a Vmax plate reader (Molecular Devices, Menlo Park, Calif.). Titration curves were fit with a four-parameter nonlinear regression curve-fitting program (KaleidaGraph, Synergy software, Reading, Pa.). Concentrations of IgG variants corresponding to the mid-point absorbance of the titration curve of the standard were calculated and then divided by the concentration of the standard corresponding to the mid-point absorbance of the standard titration curve.

[15] = biological target: T10, human FcγRIA α subunit extracellular …; assay: FcγRI ELISA, E27 background
Experimental: Prior to assay, plates are washed 3× with 250 μl of wash buffer (PBS pH 7.4 containing 0.5% TWEEN 20™) and blocked with 250 μl of assay buffer (50 mM Tris buffered saline, 0.05% TWEEN 20™, 0.5% RIA grade bovine albumin (Sigma A7888), and 2 mM EDTA pH 7.4). Samples diluted to 10 μg/ml in 1 ml of assay buffer are added to FcγRI α subunit coated plates and incubated for 120 minutes at 25° C. on an orbital shaker. […] Plates are washed 5× with wash buffer to remove unbound HRP goat anti-human IgG and bound anti-IgG is detected by adding 100 μl of substrate solution (0.4 mg/ml o-phenylenedaimine dihydrochloride, Sigma P6912, 6 mM H_2O_2 in PBS) and incubating for 8 min at 25° C. Enzymatic reaction is stopped by the addition of 100 μl 4.5N H_2SO_4 and colorimetric product is measured at 490 nm on a 96 well plate densitometer (Molecular Devices). Binding of variant is expressed as a percent of the wild type molecule.

[16] = biological target: T1, human FcγRIIA-Arg131 α subunit …; assay: hexamer ELISA; remark: listed apart in the source
[17] = biological target: T2, human FcγRIIIA-Phe158 α subunit …; assay: hexamer ELISA; remark: listed apart in the source
[18] = biological target: T1, human FcγRIIA-Arg131 α subunit …; assay: immune complex ELISA, E27 background
[19] = biological target: T2, human FcγRIIIA-Phe158 α subunit …; assay: immune complex ELISA, E27 background
[20] = biological target: T12, human FcγRIIA-R131 α subunit extracellular domain-6His-GST fusion (human, UniProt P12318 34-217); assay: ELISA, IgG:IgE hexamers on receptor-GST
T12 construct: also called FcγRIIA-Arg131; not shown: glutathione S-transferase (GST)
T12 sequence: T1 sequence

[21] = biological target: T13, human FcγRIIB α subunit extracellular domain-6His-GST fusion (human, UniProt P31994 43-217); assay: ELISA, IgG:IgE hexamers on receptor-GST
T13 construct: not shown: glutathione S-transferase (GST)
T13 sequence: T3 sequence

[22] = biological target: T14, human FcγRIIIA-F158 α subunit extracellular domain-6His-GST fusion (human, UniProt P08637 17-208); assay: ELISA, IgG:IgE hexamers on receptor-GST
T14 construct: also called FcγRIIIA-Phe158; not shown: glutathione S-transferase (GST)
T14 sequence (P08637 other isoform, or with tags, fused parts or gaps, form in doubt): as the sequence (P08637 other isoform, or with tags, fused parts or gaps) above

human FcRn, biotinylated = biological target: T15, human FcRn, biotinylated (human, UniProt P55899 24-297; P61769 21-119, biotinylated (biotin-X-NHS)); assay: ELISA, biotin-FcRn on streptavidin, pH 6.0
T15 construct: Captured on streptavidin plates; IgG added at pH 6.0; also called neonatal Fc receptor
T15 sequence (P55899 24-297 limits assumed, chain 1 of 2): as the sequence (P55899 24-297 limits assumed, chain 1 of 2) above
T15 sequence (P61769 21-119 limits assumed, chain 2 of 2): as the sequence (P61769 21-119 limits assumed, chain 2 of 2) above
Experimental: as §1

[23] = biological target: T3, human FcγRIIB α subunit extracellular …; assay: hexamer ELISA; remark: listed apart in the source
[24] = biological target: T3, human FcγRIIB α subunit extracellular …; assay: immune complex ELISA, E27 background

B1: anti-IgE E27 IgG1 Asp265Asn (antibody)
heavy: not shown
light: DIQLTQSPSSLSASVGDRVTITCRASKPVDGEGDSYLNWYQQKPGKAPKLLIYAASYLESGVPSRFSGSGSGTDFTLTISSLQPEDFATYYCQQSHEDPYTFGQGTKVEIKRTVAAPSVFIFPPSDEQLKSGTASVVCLLNNFYPREAKVQWKVDNALQSGNSQESVTEQDSKDSTYSLSSTLTLSKADYEKHKVYACEVTHQGLSSPVTKSFNRGEC
binding result [1]: no binding | binding result [2]: no binding | binding result [3]: no binding

B2: anti-IgE E27 IgG1 variant Ser298Ala (antibody)
heavy: not shown
light: B1 light
notes: also called S317A
ratio of binding of the variant to that of native IgG1 [4]: 1.18 ratio (variant/native IgG1) | ratio of binding of the variant to that of native IgG1 [5]: 1.49 ratio (variant/native IgG1) | ratio of binding of the variant to that of native IgG1 [6]: 1.07 ratio (variant/native IgG1) | ratio of binding of the variant to that of native IgG1 [7]: 0.4 ratio (variant/native IgG1) | H131/R131 [8]: 0.93 ratio (H131 value/R131 value) | ratio of binding of the variant to that of native IgG1 [9]: 1.85 ratio (variant/native IgG1) | ratio of binding of the variant to that of native IgG1 [10]: 1.34 ratio (variant/native IgG1) | ratio of binding of the variant to that of native IgG1 [11]: 0.26 ratio (variant/native IgG1) | ratio of binding of the variant to that of native IgG1 [12]: 0.24 ratio (variant/native IgG1)

B3: anti-IgE E27 IgG1 Gln419 changed to Ala (antibody)
heavy: not shown
light: B1 light
notes: named only by its position
reduction in binding against native IgG1 [1]: 30% | reduction in binding against native IgG1 [3]: 40%

B4: anti-IgE E27 IgG1 Pro329Ala (antibody)
heavy: not shown
light: B1 light
notes: also called P329A
ratio to native IgG1 [13]: 0.48 ratio | ratio to native IgG1 [14]: 0.8 ratio | percentage of the wild type [15]: 104% | ratio to native IgG1 [16]: 0.08 ratio | ratio to native IgG1 [17]: 0.21 ratio | percentage of the wild type [18]: 111% | percentage of the wild type [19]: 85%

B5: anti-IgE E27 IgG1 Asp270Asn (antibody)
heavy: not shown
light: B1 light
binding result [1]: no binding | binding result [2]: no binding | binding result [3]: no binding

B6: E27 IgG1 variant E380(405)A/L309(328)A (antibody)
heavy: not shown
light: B1 light
notes: also called IG2 271
ratio to native IgG1 [20]: 0.98 | ratio to native IgG1 [21]: 1.04 | ratio to native IgG1 [22]: 0.92 | ratio to native IgG1 (human FcRn, biotinylated): 0.9

B7: anti-IgE E27 IgG1 Pro331Ala (antibody)
heavy: not shown
light: B1 light
notes: also called P331A
ratio to native IgG1 [13]: 1.01 ratio | ratio to native IgG1 [14]: 0.85 ratio | percentage of the wild type [15]: 74% | ratio to native IgG1 [16]: 1.29 ratio | ratio to native IgG1 [17]: 1.08 ratio | ratio to native IgG1 [23]: 1.34 ratio | percentage of the wild type [18]: 86% | percentage of the wild type [19]: 73% | percentage of the wild type [24]: 58%

B8: anti-IgE E27 IgG1 Lys322Ala (antibody)
heavy: not shown
light: B1 light
notes: also called K322A
ratio to native IgG1 [13]: 0.94 ratio | ratio to native IgG1 [14]: 0.98 ratio | percentage of the wild type [15]: 90% | ratio to native IgG1 [16]: 1.17 ratio | ratio to native IgG1 [17]: 0.62 ratio | ratio to native IgG1 [23]: 1.28 ratio | percentage of the wild type [18]: 109% | percentage of the wild type [19]: 90% | percentage of the wild type [24]: 101%

B9: anti-IgE E27 IgG1 Ser298Asn (antibody)
heavy: not shown
light: B1 light
binding result [1]: no binding | binding result [2]: no binding | binding result [3]: no binding

B10: anti-IgE E27 IgG1 Asp265Glu (antibody)
heavy: not shown
light: B1 light
binding result [1]: no binding | binding result [2]: no binding | binding result [3]: no binding

B11: E27 IgG1 variant E380(405)A/N434(465)A (antibody)
heavy: not shown
light: B1 light
notes: also called IG2 269
ratio to native IgG1 [20]: 1.02 | ratio to native IgG1 [21]: 1.05 | ratio to native IgG1 [22]: 1.02 | ratio to native IgG1 (human FcRn, biotinylated): 8

B12: anti-IgE E27 IgG1 Lys414Ala (antibody)
heavy: not shown
light: B1 light
ratio to native IgG1 [13]: 1 ratio | ratio to native IgG1 [14]: 1.02 ratio | ratio to native IgG1 [16]: 0.64 ratio | ratio to native IgG1 [17]: 0.82 ratio | ratio to native IgG1 [23]: 0.58 ratio | reduction in binding against native IgG1 [1]: 40% | reduction in binding against native IgG1 [3]: 40%
